Results as given in US20220177587A1, “METHODS AND USES OF VARIANT CD80 FUSION PROTEINS AND RELATED CONSTRUCTS” (Alpine Immune Sciences, Inc., priority 2018, published 2022).
Where a chain is given by its changes, count along the chain named. In names and notes the source's numbering stands.

B1: D46V/M47L/V68M (protein)
chain: VIHVTKEVKEVATLSCGHNVSVEELAQTRIYWQKEKKMVLTMMSGVLNIWPEYKNRTIFDITNNLSIMILALRPSDEGTYECVVLKYEKDAFKREHLAEVTLSVKAD
B2: K89N (protein)
chain: B1 chain with V46D, L47M, M68V, K89N
B3: E35D/D46V/M47L/L85Q (protein)
chain: B1 chain with E35D, M68V, L85Q
B4: D46V/M47L/L85Q (protein)
chain: B1 chain with M68V, L85Q
B5: E35D/D46V/M47L/V68M/L85Q (protein)
chain: B1 chain with E35D, L85Q
B6: M47V (protein)
chain: B1 chain with V46D, L47V, M68V

target: huCTLA4 (Homo sapiens, UniProt P16410); experiment: Flow binding to CHO cells stably expressing CTLA4; parameters: huCTLA4 and huPD-L1, full-length mammalian surface expression constructs were generated; expressed in transfected cells; host or cells: CHO cells, lentiviral transduction, sorted to >98% purity; conditions: Table E19; CHO cells stably expressing CTLA4; 33.3 nM
Sequence (P16410 36-223): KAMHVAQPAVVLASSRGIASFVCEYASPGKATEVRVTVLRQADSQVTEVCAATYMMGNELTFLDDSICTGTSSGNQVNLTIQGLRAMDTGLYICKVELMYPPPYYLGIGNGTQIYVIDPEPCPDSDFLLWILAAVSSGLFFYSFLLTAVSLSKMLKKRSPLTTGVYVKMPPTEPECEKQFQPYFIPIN
Procedure, shortened: (§1)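 Cells were first blocked in PBS with 1% BSA and 0.1% sodium azide. Primary staining with fusion protein ran 45 min on ice, and secondary staining with PE anti-human Fc at 1:150 ran 30 min on ice.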

Molecule | CTLA4 MFI at 33.3 nM
B1 | 34688
B2 | 944
B3 | 38150
B4 | 40153
B5 | 26207
B6 | 33341

same assay, conditions: Table E19; MFI at 33.3 nM relative to WT CD80 ECD-Fc (Abcam)

Molecule | CTLA4 Fold change to WT CD80
B1 | 0.9 fold
B2 | 0.0 fold
B3 | 0.9 fold
B4 | 1.0 fold
B5 | 0.6 fold
B6 | 0.8 fold

target: T1, CD28 (Homo sapiens, UniProt P10747); experiment: Jurkat/IL2 + CHO/OKT3 +/- PD-L1 reporter assay: PD-L1-dependent CD28 costimulation; assay type: cell-based; parameters: host or cells: Jurkat cells expressing an IL-2-luciferase reporter; conditions: Table E21; Jurkat/IL2 + CHO/OKT3/PD-L1; 5.0 nM
Procedure, shortened: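 Readout is relative luminescence from lysed cocultures: test protein given 15 min at room temperature to Jurkat cells before adding CHO artificial APCs displaying OKT3 alone or OKT3 plus PD-L1, then 5 h at 37 °C, 5% CO2.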

Molecule | Fold Increase over WT CD80-IgV-Fe
B1 | 6.3 fold
B2 | 1.0 fold
B3 | 4.2 fold
B4 | 5.2 fold
B5 | 6.2 fold
B6 | 3.9 fold

same assay, conditions: Table E21; Jurkat/IL2 + CHO/OKT3/PD-L1; CD80 Conc 5.0 nM

Molecule | Relative Luciferase Units (RLU), CD80 Conc 5.0 nM
B1 | 724 RLU
B2 | 116 RLU
B3 | 481 RLU
B4 | 598 RLU
B5 | 712 RLU
B6 | 445 RLU

target: T1, CD28; experiment: Flow binding to Jurkat/IL2 reporter cells (CD28); parameters: host or cells: Jurkat cells expressing an IL-2-luciferase reporter; conditions: Table E19; Jurkats (CD28); 33.3 nM
Procedure, shortened: as §1

Molecule | CD28 MFI at 33.3 nM
B1 | 2183
B2 | 56.3
B3 | 268
B4 | 567
B5 | 464
B6 | 68.7

same assay, conditions: Table E19; MFI at 33.3 nM relative to WT CD80 ECD-Fc (Abcam)

Molecule | CD28 Fold change to WT CD80
B1 | 3.1 fold
B2 | 0.1 fold
B3 | 0.4 fold
B4 | 0.8 fold
B5 | 0.7 fold
B6 | 0.1 fold

target: huPD-L1 (Homo sapiens, UniProt Q9NZQ7); experiment: Flow binding to CHO cells stably expressing PD-L1; parameters: huCTLA4 and huPD-L1, full-length mammalian surface expression constructs were generated; expressed in transfected cells; host or cells: CHO cells, lentiviral transduction, sorted to >98% purity; conditions: Table E19; CHO cells stably expressing PD-L1; 33.3 nM
Sequence (Q9NZQ7 19-290): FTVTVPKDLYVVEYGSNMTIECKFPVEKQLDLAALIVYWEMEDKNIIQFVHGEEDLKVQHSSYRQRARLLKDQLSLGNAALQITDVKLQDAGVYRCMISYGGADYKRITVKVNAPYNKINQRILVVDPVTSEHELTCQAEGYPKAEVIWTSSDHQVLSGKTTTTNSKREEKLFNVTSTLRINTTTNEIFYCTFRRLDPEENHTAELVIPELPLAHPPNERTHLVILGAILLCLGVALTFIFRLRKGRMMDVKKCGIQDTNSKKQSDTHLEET
Procedure, shortened: as §1

Molecule | PD-L1 MFI at 33.3 nM
B1 | 28020
B2 | 52.8
B3 | 7523
B4 | 5976
B5 | 28418
B6 | 2317

same assay, conditions: Table E19; MFI at 33.3 nM relative to WT CD80 ECD-Fc (Abcam)

Molecule | PD-L1 Fold change to WT CD80
B1 | 218.9 fold
B2 | 0.4 fold
B3 | 58.8 fold
B4 | 46.7 fold
B5 | 222.0 fold
B6 | 18.1 fold

same assay, conditions: Table E19; ratio of MFI at 33.3 nM

Molecule | Ratio of PDL1:CD28
B1 | 12.8
B2 | 0.9
B3 | 28.1
B4 | 10.5
B5 | 61.2
B6 | 33.7
